The values that follow come from patent US20200190143A1.

No end group written: not given here.

The target in experiment [1] is integrin receptor (beta-1 family) on keratinocytes. Briefly: flow cytometry (FACS), fluorescence immunoassay, on keratinocytes.
The target of experiment [2] is melanocortin receptor on melanocytes. Briefly: flow cytometry (FACS), fluorescence immunoassay, on melanocytes. A general note: In flow cytometry, cells or beads pass a laser one at a time.
The target is the same in experiment [3]. The experiment is described as follows: binding of alpha-MSH to melanocytes after treatment with 10 µM capsule 2; competitor alpha-MSH.
Experiment [4] has the same target. The experiment is described as follows: interference with alpha-MSH binding to melanocytes as in Example 4-1; peptide density 2 peptides/µm^2; reference set to 10.
Experiment [5] shares this target. The experiment is described as follows: interference with alpha-MSH binding to melanocytes as in Example 4-1; peptide density 10.5 peptides/µm^2.
Experiment [6] concerns the target fibroblast growth factor receptor on fibroblasts. Briefly: binding to fibroblasts as in Example 3-1; peptide density 0.1 peptides/µm^2.
For experiment [7] the target is unchanged. Briefly: capsule and fibroblasts cultured together at 4° C. for 1 hour.
Experiment [8] has the same target. Briefly: flow cytometry (FACS), fluorescence immunoassay, on fibroblasts.
For experiment [9] the target is unchanged. Briefly: binding to fibroblasts as in Example 3-1; peptide density 2 peptides/µm^2; reference set to 10.
The target is the same in experiment [10]. Briefly: binding to fibroblasts as in Example 3-1; peptide density 10.5 peptides/µm^2.
Experiment [11] has the same target. The experiment is described as follows: binding to fibroblasts as in Example 3-1; peptide density 0.05 peptides/µm^2.
For experiment [12], the target named is melanocortin receptor on melanocytes. The experiment is described as follows: interference with alpha-MSH binding to melanocytes as in Example 4-1; peptide density 0.05 peptides/µm^2.
Experiment [13] has as its target fibroblast growth factor receptor on fibroblasts. The experiment is described as follows: binding to fibroblasts as in Example 3-1; peptide density 10 peptides/µm^2.
Experiment [14] shares this target. The experiment is described as follows: binding to fibroblasts as in Example 3-1; peptide density 7 peptides/µm^2.
For experiment [15], the target named is melanocortin receptor on melanocytes. Briefly: interference with alpha-MSH binding to melanocytes as in Example 4-1; peptide density 0.1 peptides/µm^2.
Experiment [16] has the same target. The experiment is described as follows: interference with alpha-MSH binding to melanocytes as in Example 4-1; peptide density 7 peptides/µm^2.
The target is the same in experiment [17]. The experiment is described as follows: interference with alpha-MSH binding to melanocytes as in Example 4-1; peptide density 10 peptides/µm^2.

B1: capsule 3 (microcapsule to which the peptide of SEQ ID NO: 3 was linked) (peptide)
peptide: ADGSP
modifications: not fully specified (N-terminus); printed as Ala-Asp-Gly-Ser-Pro; also: N-terminus linked to microcapsule surface carboxyl (EDAC/NHS)
Take B1: in experiment [1], the binding rate was determined as 85%.

B2: capsule 2 (microcapsule to which the peptide of SEQ ID NO: 2 was linked) (peptide)
peptide: EGHKIFPSWY
modifications: not fully specified (N-terminus); printed as Glu-Gly-His-Lys-Ile-Phe-Pro-Ser-Trp-Tyr; also: N-terminus amide-linked to microcapsule surface carboxyl (EDAC/NHS)
The molecule B2 had a binding affinity (binding rate) in experiment [2] of 70%. Moreover, the percent reduction of the binding of melanocyte and alpha-MSH in experiment [3] was 95%. Further, the binding interference of melanocyte and alpha-MSH, relative (capsule 2-3 = 10) (relative to capsule 2-3 = 10) in experiment [4] worked out at 10.

B3: capsule 2-6 (peptide)
peptide: EGHKIFPSWY
modifications: not fully specified (N-terminus); printed as Glu-Gly-His-Lys-Ile-Phe-Pro-Ser-Trp-Tyr; also: N-terminus linked to microcapsule surface carboxyl (EDAC/NHS)
For B3, the binding interference of melanocyte and alpha-MSH, relative (capsule 2-3 = 10) (relative to capsule 2-3 = 10) in [5] was determined as 3.

B4: capsule 1-2 (peptide)
peptide: AKST
modifications: not fully specified (N-terminus); printed as Ala-Lys-Ser-Thr; also: N-terminus amide-linked to microcapsule surface carboxyl (EDAC/NHS)
As for B4, the binding affinity to fibroblasts, relative (capsule 1-3 = 10) (relative to capsule 1-3 = 10) in experiment [6] was determined as 7.

B5: capsule 1 (microcapsule to which the peptide of SEQ ID NO: 1 was linked) (peptide)
peptide: AKST
modifications: not fully specified (N-terminus); printed as Ala-Lys-Ser-Thr; also: N-terminus amide-linked to microcapsule surface carboxyl (EDAC/NHS)
In the case of B5, the fold binding affinity against the microcapsule to which the peptide was not linked in experiment [7] was 4 times. In experiment [8], this molecule showed a binding rate of 75%. This molecule displayed a binding affinity to fibroblasts, relative (capsule 1-3 = 10) (relative to capsule 1-3 = 10) in experiment [9] of 10.

B6: capsule 1-6 (peptide)
peptide: AKST
modifications: not fully specified (N-terminus); printed as Ala-Lys-Ser-Thr; also: N-terminus amide-linked to microcapsule surface carboxyl (EDAC/NHS)
Take B6: the binding affinity to fibroblasts, relative (capsule 1-3 = 10) (relative to capsule 1-3 = 10) in experiment [10] was found to be 3.5.

B7: capsule 1-1 (peptide)
peptide: AKST
modifications: not fully specified (N-terminus); printed as Ala-Lys-Ser-Thr; also: N-terminus amide-linked to microcapsule surface carboxyl (EDAC/NHS)
For B7, the binding affinity to fibroblasts, relative (capsule 1-3 = 10) (relative to capsule 1-3 = 10) in [11] was determined as 2.

B8: capsule 2-1 (peptide)
peptide: EGHKIFPSWY
modifications: not fully specified (N-terminus); printed as Glu-Gly-His-Lys-Ile-Phe-Pro-Ser-Trp-Tyr; also: N-terminus amide-linked to microcapsule surface carboxyl (EDAC/NHS)
Molecule B8 returned a binding interference of melanocyte and alpha-MSH, relative (capsule 2-3 = 10) (relative to capsule 2-3 = 10) in [12] of 3.

B9: capsule 1-5 (peptide)
peptide: AKST
modifications: not fully specified (N-terminus); printed as Ala-Lys-Ser-Thr; also: N-terminus amide-linked to microcapsule surface carboxyl (EDAC/NHS)
B9 registered a binding affinity to fibroblasts, relative (capsule 1-3 = 10) (relative to capsule 1-3 = 10) in experiment [13] of 7.5.

B10: capsule 1-4 (peptide)
peptide: AKST
modifications: not fully specified (N-terminus); printed as Ala-Lys-Ser-Thr; also: N-terminus amide-linked to microcapsule surface carboxyl (EDAC/NHS)
In turn, B10 gave a binding affinity to fibroblasts, relative (capsule 1-3 = 10) (relative to capsule 1-3 = 10) in [14] of 9.5.

B11: capsule 2-2 (peptide)
peptide: EGHKIFPSWY
modifications: not fully specified (N-terminus); printed as Glu-Gly-His-Lys-Ile-Phe-Pro-Ser-Trp-Tyr; also: N-terminus amide-linked to microcapsule surface carboxyl (EDAC/NHS)
The molecule B11 registered a binding interference of melanocyte and alpha-MSH, relative (capsule 2-3 = 10) (relative to capsule 2-3 = 10) in experiment [15] of 7.5.

B12: capsule 2-4 (peptide)
peptide: EGHKIFPSWY
modifications: not fully specified (N-terminus); printed as Glu-Gly-His-Lys-Ile-Phe-Pro-Ser-Trp-Tyr; also: N-terminus linked to microcapsule surface carboxyl (EDAC/NHS)
The molecule B12 returned a binding interference of melanocyte and alpha-MSH, relative (capsule 2-3 = 10) (relative to capsule 2-3 = 10) in experiment [16] of 10.

B13: capsule 2-5 (peptide)
peptide: EGHKIFPSWY
modifications: not fully specified (N-terminus); printed as Glu-Gly-His-Lys-Ile-Phe-Pro-Ser-Trp-Tyr; also: N-terminus linked to microcapsule surface carboxyl (EDAC/NHS)
For B13, the binding interference of melanocyte and alpha-MSH, relative (capsule 2-3 = 10) (relative to capsule 2-3 = 10) in experiment [17] is 7.
